Measured values: patent US20190322720A1

What was measured:
[1] = target: 16C3 antigen (CEACAM5 and/or CEACAM6) on tumor cells; assay: rosetting assay, h16C3-coupled beads on CFPAC-1 cells in the presence of 4B6 at 5 µg/ml
[2] = target: 16C3 antigen (CEACAM5 and/or CEACAM6) on tumor cells; assay: flow cytometry, CFPAC-1 pancreatic cells
[3] = target: 16C3 antigen (CEACAM5 and/or CEACAM6) on tumor cells; assay: flow cytometry, CFPAC-1 pancreatic cells; remark: listed apart in the source
[4] = target: 16C3 antigen (CEACAM5 and/or CEACAM6) on tumor cells; assay: flow cytometry, LS174T colorectal cells
[5] = target: 16C3 antigen (CEACAM5 and/or CEACAM6) on tumor cells; assay: flow cytometry, HT-29 colorectal cells
[6] = target: 16C3 antigen (CEACAM5 and/or CEACAM6) on tumor cells; assay: flow cytometry, HT-29 colorectal cells; remark: listed apart in the source
[7] = target: 16C3 antigen (CEACAM5 and/or CEACAM6) on tumor cells; assay: flow cytometry, LS174T colorectal cells; remark: listed apart in the source
[8] = target: 16C3 antigen (CEACAM5 and/or CEACAM6) on tumor cells; assay: rosetting assay, antibody-coupled beads on CFPAC-1 cells

B1: h16C3 (antibody, from a related filing, V domains shown)
VH: QVQLVQSGAEVKKPGASVKVSCKASGYTFTDYAMHWVRQAPGQRLEWMGLISTYSGDTKYNQNFQGRVTMTVDKSASTAYMELSSLRSEDTAVYYCARGDYSGSRYWFAYWGQGTLVTVSS
VL: DIQMTQSPSSLSASVGDRVTITCQASENIYGALNWYQRKPGKSPKLLIYGASNLATGMPSRFSGSGSGTDYTFTISSLQPEDIATYYCQQVLSSPYTFGGGTKLEIKR
Binder B1 has a Rosetted cells (>8 beads) [1] of 50%, a mean fluorescence intensity [2] of 91 mfi and a % Cell Staining [3] of 91.8%. For the same binder, the mean fluorescence intensity [3] was 91 mfi, the % Cell Staining [4] was 69.4% and the mean fluorescence intensity [4] was 103 mfi. It also gave a mean fluorescence intensity [5] of 44 mfi, a % Cell Staining [6] of 26.3% and a mean fluorescence intensity [6] of 44 mfi. It also gave a mean fluorescence intensity [7] of 103 mfi and a Rosetted cells (>8 beads) [8] of 53%.
